Laboratory results reported in article PMC11316637 (Structure (London, England : 1993), 2024).

Target: A/New Caledonia/20/1999 (H1N1) hemagglutinin, truncated recombinant HA (Influenza A virus A/New …, UniProt Q6WG00, strain)
Experiment: ELISA

B1: mAb BE1 (whole mouse antibody) (antibody, V domains shown)
VH: EVQLVESGGGLVQPKGSLKLSCATSGFTFNTFDMHWVRQAPGKDLEWVARIRTKGNSYATYYAASVKDRITISRDDSQSMLYLEMNSLRSEDTAMYYCVREGGHYYGYYFDFWGQGTTLTVSS
VL: EIQMTQTTSSLSASLGDRVTISCRASQDIYNYLNWYQQQPDGAVKLLIYYTSKLHSGVPSRFSGSGSGTDYSLTITNLEQEDIATYFCQQGYTLPYTFGGGTKLEIK
Does B1 bind?
Result: binds
